Experimental data published in article PMC9895041, “Molecular evolutionary insight of structural zinc atom in yeast xylitol dehydrogenases and its application in bioethanol production by lignocellulosic biomass” (Scientific Reports, 2023).
Where a chain is given by its changes, count along the chain named. Names may count otherwise.

Experiments:
purified protein [1] = substrate: OC[C@@H](O)[C@H](O)[C@@H](O)CO; assay: purified protein; details: 1.5 mM NAD+, 50 mM Tris-HCl pH 8.0, 30 °C
[2] = molecular target: the molecule itself; assay: SEC; gel filtration of the sample purified by Ni-NTA (HiLoad 16/600 Superdex 200 pg, 20 mM Tris-HCl pH 8.0, 150 mM NaCl)
purified protein [3] = substrate: OC[C@@H](O)[C@H](O)[C@@H](O)CO; assay: purified protein; assay type: biochemical, Scheffersomyces stipitis; details: […] NAD+, 50 mM Tris-HCl pH 8.0, 30 °C
[4] = molecular target: the molecule itself; assay: SEC; analytical size-exclusion chromatography of PsXDHC4 in solution

B1: SpXDH C97S mutant (enzyme, Schizosaccharomyces pombe, UniProt P36624 1-360, looked up)
chain: MAPAEKAFVLRKKMDTAIEDRPGQTLTDDHQVKVAIKATGICGSDVHYWKEGGIGDFILKKPMILGHESAGVVVEVGKGVSSLKPGDPVAVEPGCVSRLCDYCRSGRYNLCPHMEFAATPPYDGTLRTYYITTEDFCTKLPKQISVEEGALFEPMSVAVHAMTRGNLKCGSRVLVMGCGTVGLLMMAVAKAYGAIDIVAVDASPSRVEFAQKYVGAKPFTPIAAKENESLPDYAQRYKQAIIEKYGEFDFAVDATGVGICIHTAVLALKRGGTFVQAGNGKPVIDFPINHIINYEINVLGSFRYAHGCYKQSLFLVSNGLVDVKPLITHRFAFKDALKAYETVASGEEGVLKVIIGGPDA
notes: SPBC1773.05c protein of S. pombe (SpXDH), cloned into pQE-81L; source: E. coli DH5α, purified (Ni-NTA)
For B1, the Km (purified protein [1]; 1-10 mM xylitol) was 12.3 ± 2.3 mM, the kcat (purified protein [1]; 1-10 mM xylitol) was 6.03 s⁻¹ and the kcat/Km (purified protein [1]; 1-10 mM xylitol) was 493 M⁻¹ s⁻¹. For the same protein, the “stoichiometry N” value [2] was 4.

B2: SpXDH C97D mutant (enzyme, Schizosaccharomyces pombe, UniProt P36624 1-360, looked up)
chain: B1 chain with S97D
notes: as for B1
Protein B2 has a Km (purified protein [1]; 1-10 mM xylitol) of 10.4 ± 0.1 mM, a kcat (purified protein [1]; 1-10 mM xylitol) of 6.78 s⁻¹ and a kcat/Km (purified protein [1]; 1-10 mM xylitol) of 650 M⁻¹ s⁻¹. For the same protein, the “stoichiometry N” value [2] was 4.

B3: SpXDH (Schizosaccharomyces pombe 972h-; C111D) (protein)
chain: B1 chain with S97C, C111D
With B3 the Km (purified protein [1]; 1-10 mM xylitol) was 9.76 ± 0.15 mM, the kcat (purified protein [1]; 1-10 mM xylitol) was 3.6 s⁻¹ and the kcat/Km (purified protein [1]; 1-10 mM xylitol) was 368 M⁻¹ s⁻¹.

B4: SpXDH wild type (xylitol dehydrogenase, SPBC1773.05c protein from Schizosaccharomyces pombe) (enzyme, UniProt P36624 1-360, looked up)
chain: B1 chain with S97C
notes: cloned into pQE-81L; also called SpXDHWT; WT; source: E. coli DH5α, purified (Ni-NTA)
For B4, the Km (purified protein [1]; 1-10 mM xylitol) was 6.10 ± 0.34 mM, the kcat (purified protein [1]; 1-10 mM xylitol) was 6.95 s⁻¹ and the kcat/Km (purified protein [1]; 1-10 mM xylitol) was 1140 M⁻¹ s⁻¹. For the same protein, the “stoichiometry N” value [2] was 4.

B5: SpXDH C100S mutant (enzyme, Schizosaccharomyces pombe, UniProt P36624 1-360, looked up)
chain: B1 chain with S97C, C100S
notes: as for B1
Work on B5 yielded a Km (purified protein [1]; 1-10 mM xylitol) of 16.2 ± 5.0 mM, a kcat (purified protein [1]; 1-10 mM xylitol) of 0.202 s⁻¹ and a kcat/Km (purified protein [1]; 1-10 mM xylitol) of 12.4 M⁻¹ s⁻¹. The “stoichiometry N” value [2] was 4.

B6: SpXDH (Schizosaccharomyces pombe 972h-; C100D) (protein)
chain: B1 chain with S97C, C100D
With B6 the Km (purified protein [1]; 1-10 mM xylitol) was 8.26 ± 0.89 mM, the kcat (purified protein [1]; 1-10 mM xylitol) was 2.17 s⁻¹ and the kcat/Km (purified protein [1]; 1-10 mM xylitol) was 263 M⁻¹ s⁻¹.

B7: SpXDH C103D mutant (enzyme, Schizosaccharomyces pombe, UniProt P36624 1-360, looked up)
chain: B1 chain with S97C, C103D
notes: as for B1
B7 was tested, and the Km (purified protein [1]; 1-10 mM xylitol) was 10.5 ± 0.7 mM, the kcat (purified protein [1]; 1-10 mM xylitol) was 7.82 s⁻¹ and the kcat/Km (purified protein [1]; 1-10 mM xylitol) was 743 M⁻¹ s⁻¹. The “stoichiometry N” value [2] was 4.

B8: SpXDH C103S mutant (enzyme, Schizosaccharomyces pombe, UniProt P36624 1-360, looked up)
chain: B1 chain with S97C, C103S
notes: as for B1
Work on B8 yielded a Km (purified protein [1]; xylitol range not marked) of 9.01 ± 0.74 mM, a kcat (purified protein [1]; xylitol range not marked) of 2.08 s⁻¹ and a kcat/Km (purified protein [1]; xylitol range not marked) of 233 M⁻¹ s⁻¹. The “stoichiometry N” value [2] was 4.

B9: SpXDH C111S mutant (enzyme, Schizosaccharomyces pombe, UniProt P36624 1-360, looked up)
chain: B1 chain with S97C, C111S
notes: as for B1
With B9 the “stoichiometry N” value [2] was 4.

B10: PsXDH (Scheffersomyces stipitis CBS 6054) (protein)
chain: MTANPSLVLNKIDDISFETYDAPEISEPTDVLVQVKKTGICGSDIHFYAHGRIGNFVLTKPMVLGHESAGTVVQVGKGVTSLKVGDNVAIEPGIPSRFSDEYKSGHYNLCPHMAFAATPNSKEGEPNPPGTLCKYFKSPEDFLVKLPDHVSLELGALVEPLSVGVHASKLGSVAFGDYVAVFGAGPVGLLAAAVAKTFGAKGVIVVDIFDNKLKMAKDIGAATHTFNSKTGGSEELIKAFGGNVPNVVLECTGAEPCIKLGVDAIAPGGRFVQVGNAAGPVSFPITVFAMKELTLFGSFRYGFNDYKTAVGIFDTNYQNGRENAPIDFEQLITHRYKFKDAIEAYDLVRAGKGAVKCLIDGPE
notes: full length, N-terminal His6 tag (pQE-81L), E. coli DH5alpha; homotetramer; 7Y9P is the apo C4 mutant
For B10, the Km (purified protein [3]; 0.1-1 mM xylitol) was 2.05 ± 0.20 mM, the kcat (purified protein [3]; 0.1-1 mM xylitol) was 0.63 ± 0.0583 s⁻¹ and the kcat/Km (purified protein [3]; 0.1-1 mM xylitol) was 307 ± 3.33 M⁻¹ s⁻¹.

B11: PsXDH (Scheffersomyces stipitis CBS 6054; S96D/S99C/Y102C) (protein)
chain: B10 chain with S96D, S99C, Y102C
notes: as for B10
B11 gave a Km (purified protein [3]; 1-10 mM xylitol) of 11.0 ± 1.2 mM, a kcat (purified protein [3]; 1-10 mM xylitol) of 9.17 ± 0.633 s⁻¹ and a kcat/Km (purified protein [3]; 1-10 mM xylitol) of 837 ± 28.3 M⁻¹ s⁻¹.

B12: PsXDH (Scheffersomyces stipitis CBS 6054; S96C/S99C/Y102C) (protein)
chain: B10 chain with S96C, S99C, Y102C
notes: as for B10
In the case of B12, the Km (purified protein [3]; 0.1-1 mM xylitol) is reported as 4.94 ± 1.62 mM, the kcat (purified protein [3]; 0.1-1 mM xylitol) is reported as 6.4 ± 1.85 s⁻¹ and the kcat/Km (purified protein [3]; 0.1-1 mM xylitol) is reported as 1320 ± 66.7 M⁻¹ s⁻¹.

B13: PsXDHC4 mutant (xylitol dehydrogenase from Pichia stipitis, S96C/S99C/Y102C) (enzyme)
chain: TANPSLVLNKIDDISFETYDAPEISEPTDVLVQVKKTGICGSDIHFYAHGRIGNFVLTKPMVLGHESAGTVVQVGKGVTSLKVGDNVAIEPGIPCRFCDECKSGHYNLCPHMAFAATPNSKEGEPNPPGTLCKYFKSPEDFLVKLPDHVSLELGALVEPLSVGVHASKLGSVAFGDYVAVFGAGPVGLLAAAVAKTFGAKGVIVVDIFDNKLKMAKDIGAATHTFNSKTGGSEELIKAFGGNVPNVVLECTGAEPCIKLGVDAIAPGGRFVQVGNAAGPVSFPITVFAMKELTLFGSFRYGFNDYKTAVGIFDTNYQNGRENAPIDFEQLITHRYKFKDAIEAYDLVRAGKGAVKCLIDGPE
notes: xylitol dehydrogenase (XDH) of Pichia stipitis (Scheffersomyces stipitis), encoded by the PICST_86924 gene, cloned into pQE-81L; the model holds Thr2-Pro362 (Ser121-Gly124 not built); source: E. coli DH5α, purified (Ni-NTA, Superdex 200)
For B13, the “stoichiometry N” value [4] was 4.

B14: ScXDH (Saccharomyces cerevisiae S288C) (protein)
chain: MTDLTTQEAIVLERPGKITLTNVSIPKISDPNEVIIQIKATGICGSDIHYYTHGRIANYVVESPMVLGHESSGIVALIGENVKTLKVGDRVALEPGIPDRFSPEMKEGRYNLDPNLKFAATPPFDGTLTKYYKTMKDFVYKLPDDVSFEEGALIEPLSVAIHANKLAKIKFGARCVVFGAGPIGLLAGKVASVFGAADVVFVDLLENKLETARQFGATHIVNSGDLPHGVTVDSVIKKAIGKKGADVVFECSGAEPCVRAGIEVCKAGGTIVQVGMGQEEIQFPISIIPTKELTFQGCFRYCQGDYSDSIELVSSRKLSLKPFITHRYSFKDAVEAFEETSHHPLNNIKTIIEGPE
For B14, the Km (purified protein [1]; 0.1-1 mM xylitol) was 1.82 ± 0.42 mM, the kcat (purified protein [1]; 0.1-1 mM xylitol) was 0.0182 s⁻¹ and the kcat/Km (purified protein [1]; 0.1-1 mM xylitol) was 10.1 M⁻¹ s⁻¹.

B15: ScXDH (Saccharomyces cerevisiae S288C; D113C/D99C/M105C/S102C) (protein)
chain: B14 chain with D99C, S102C, M105C, D113C
B15 was tested, and the Km (purified protein [1]; 0.1-1 mM xylitol) was 5.44 ± 0.78 mM, the kcat (purified protein [1]; 0.1-1 mM xylitol) was 0.402 s⁻¹ and the kcat/Km (purified protein [1]; 0.1-1 mM xylitol) was 74 M⁻¹ s⁻¹.
